Consider 3 substances from US20230192845A1.

The target in experiment [1] is hCD96-HA tagged protein transiently expressed on CHO cells (FRET assay) (human) (UniProt P40200). Description: FRET between anti-HA-PE and anti-HA-APC by flow cytometry on CHO cells transfected with hCD96-HA; right-hand plot; the left-hand plot of the panel prints FRET 0,10% (taken as the pooled negative control). (In flow cytometry, cells or beads pass a laser one at a time.)

Experiment [2] addresses hCD226-His tagged protein transiently expressed on CHO cells (human) (UniProt Q15762). The experiment in a line: FRET between anti-hCD226-PE (DX11) and anti-HA-APC by flow cytometry on CHO cells transfected with hCD96-HA and hCD226-His; right-hand plot; the left-hand plot of the panel prints FRET 0,22% (taken as the pooled negative control).
Experiment [3] addresses human CD96 short isoform v2 expressed on CHO cells (human) (UniProt P40200). Description: FCM on hCD96v2-CHO cells.
Experiment [4] has as its target T1, hCD96-humanIgG1 fusion protein (human) (UniProt P40200).
T1 sequence: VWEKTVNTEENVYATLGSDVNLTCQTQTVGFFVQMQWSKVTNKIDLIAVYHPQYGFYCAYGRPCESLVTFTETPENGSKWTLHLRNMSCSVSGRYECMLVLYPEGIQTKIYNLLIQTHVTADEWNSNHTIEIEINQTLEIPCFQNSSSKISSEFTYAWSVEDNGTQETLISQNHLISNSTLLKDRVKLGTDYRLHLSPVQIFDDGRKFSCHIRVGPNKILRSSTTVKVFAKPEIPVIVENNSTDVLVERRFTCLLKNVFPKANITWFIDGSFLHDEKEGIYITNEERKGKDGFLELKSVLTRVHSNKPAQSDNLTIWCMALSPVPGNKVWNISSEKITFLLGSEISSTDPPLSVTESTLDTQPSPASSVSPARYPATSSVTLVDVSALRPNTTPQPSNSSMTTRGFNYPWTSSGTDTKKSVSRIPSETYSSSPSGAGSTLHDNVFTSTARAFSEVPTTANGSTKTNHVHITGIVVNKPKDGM
The experiment in a line: SPR (Biacore), hCD96-hFc captured by anti-huFc.

The target in experiment [5] is human CD96 short isoform v2 expressed on CHO cells (human) (UniProt P40200). The experiment in a line: FCM, inhibition of hCD155-Fc binding to hCD96v2-CHO cells.

Sequence of hCD226-His tagged protein transiently expressed on CHO cells (human) (Q15762 19-336): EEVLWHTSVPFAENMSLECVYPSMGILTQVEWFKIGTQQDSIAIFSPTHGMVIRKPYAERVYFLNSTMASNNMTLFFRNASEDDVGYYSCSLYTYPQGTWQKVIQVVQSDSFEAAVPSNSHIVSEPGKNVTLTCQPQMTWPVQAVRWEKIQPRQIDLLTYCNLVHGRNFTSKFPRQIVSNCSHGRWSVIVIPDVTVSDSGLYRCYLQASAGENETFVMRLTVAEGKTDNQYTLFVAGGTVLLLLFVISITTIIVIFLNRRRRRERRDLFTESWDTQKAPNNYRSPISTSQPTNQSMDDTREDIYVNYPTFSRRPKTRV

In the case of “hCD96-HA tagged protein transiently expressed on CHO cells (FRET assay) (from UniProt P40200 22-585) (receptor)”, the figures for the FRET (% of cells in the FRET gate) in experiment [1] and in experiment [2] were 11.6% and 17.9%, respectively.
Turning to NK92.39 (antibody), in experiment [3], the EC50 (commonly the concentration giving half of the maximal effect) came out at 1.59 nM and the Maximum binding (delta MFI) was determined as 283000 delta MFI. In experiment [4], the Kd (as a rule, the free concentration of one partner at which half of the binding sites on the other are occupied at equilibrium, for simple one-to-one binding) was 3.24 nM; the koff – broadly, the first-order rate constant of dissociation – is 0.000346 s⁻¹; the kon (usually a measure of how fast the partners come together) is 107000 M⁻¹ s⁻¹. In addition, in experiment [5], the IC50 – broadly, the midpoint of a concentration-inhibition curve – worked out at 10.4 nM and the Maximal Inhibition Capacity (%) was 100%.
In experiment [3], clone 628211 (antibody) had an EC50 of 3.75 nM and a Maximum binding (delta MFI) of 543000 delta MFI. Moreover, in experiment [5], the IC50 amounted to 15.8 nM and the Maximal Inhibition Capacity (%) stood at 100%.
